Results on three substances are retold here after article PMC5591277.

The target of data set [1] is T1, Lsm2-8 complex (Saccharomyces cerevisiae) (UniProt P38203+P57743+P40070+P40089+Q06406+P53905+P47093).
T1 sequence 1: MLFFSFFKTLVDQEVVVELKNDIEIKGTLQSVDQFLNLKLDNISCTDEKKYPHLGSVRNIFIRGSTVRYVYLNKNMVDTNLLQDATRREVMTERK
T1 sequence 2: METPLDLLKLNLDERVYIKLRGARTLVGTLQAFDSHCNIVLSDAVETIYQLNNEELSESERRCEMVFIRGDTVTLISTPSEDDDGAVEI
T1 sequence 3: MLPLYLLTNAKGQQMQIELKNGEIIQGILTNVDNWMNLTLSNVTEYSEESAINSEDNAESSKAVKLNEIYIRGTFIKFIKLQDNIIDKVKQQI
T1 sequence 4: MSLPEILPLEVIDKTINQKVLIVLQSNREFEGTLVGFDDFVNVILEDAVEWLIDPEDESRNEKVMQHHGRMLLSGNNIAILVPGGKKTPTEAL
T1 sequence 5: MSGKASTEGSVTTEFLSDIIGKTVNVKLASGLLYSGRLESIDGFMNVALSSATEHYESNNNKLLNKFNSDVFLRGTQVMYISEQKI
T1 sequence 6: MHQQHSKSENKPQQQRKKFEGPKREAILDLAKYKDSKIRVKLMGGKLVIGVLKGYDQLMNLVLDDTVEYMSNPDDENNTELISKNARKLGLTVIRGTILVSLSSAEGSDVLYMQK
T1 sequence 7: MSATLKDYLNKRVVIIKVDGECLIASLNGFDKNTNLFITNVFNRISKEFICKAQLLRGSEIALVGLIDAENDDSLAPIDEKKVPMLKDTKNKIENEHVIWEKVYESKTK
The experiment in a line: EMSA. As to conditions: Bmax 100%, EMSA: 5 nM Cy3-U6, 100 mM KCl, 20% sucrose, 20 mM bis-tris/10 mM HCl, 1 mM EDTA, 1 mM TCEP, 0.01% Triton X-100, 0.1 mg/mL tRNA, 0.01 mg/mL heparin. A general note: A gel shift assay detects complexes by their altered migration in electrophoresis.

For data set [2], the target named is T2, Lhp1 (yeast La protein) (Saccharomyces cerevisiae) (UniProt P33399).
T2 sequence: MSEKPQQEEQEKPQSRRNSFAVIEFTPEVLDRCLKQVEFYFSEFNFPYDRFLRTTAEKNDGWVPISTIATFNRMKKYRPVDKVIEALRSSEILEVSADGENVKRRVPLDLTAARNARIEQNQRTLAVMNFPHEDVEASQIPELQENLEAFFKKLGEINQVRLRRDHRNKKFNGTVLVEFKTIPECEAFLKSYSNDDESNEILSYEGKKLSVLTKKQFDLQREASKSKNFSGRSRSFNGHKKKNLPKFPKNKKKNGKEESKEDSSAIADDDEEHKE
The experiment in a line: EMSA. As to conditions: Bmax 75%, 2',3'-cis-diol end, EMSA: 5 nM Cy3-U6, 100 mM KCl, 20% sucrose, 20 mM bis-tris/10 mM HCl, 1 mM EDTA, 1 mM TCEP, 0.01% Triton X-100, 0.1 mg/mL tRNA, 0.01 mg/mL heparin.

One may read the Kd as the equilibrium constant for the complex coming apart. With U6 1-112+1U>p, the Kd in data set [1] (2',3'-cyclic phosphate) is 70 nM.

As to U6 1-112 3'OH, the Kd in data set [1] (2',3'-cis-diol end) was 210 nM; in data set [2], 18 nM.

Consider U6 1-112+1U 3'OH, for which the Kd is 30 nM in data set [1] (2',3'-cis-diol end) and 12 nM in data set [2].
